The values that follow come from patent US7576071B2, “Antithrombotic compound” (sanofi-aventis, priority 2004, dated 2009).

Series [1] in a line: Pharmacokinetics (half-life) in guinea pigs. Conditions: 0.5 μmol/kg i.v., ex-vivo plasma anti-Xa activity, compared to reference GpIIb/IIIa antagonists (XVII, XIX, XX by LC-MS/MS). As to the method:
Guinea pigs (DH) were administered 0.5 μmol/kg (i.v.) of anticoagulant. The half-life of the pentasaccharide XXII, the “parent” of the oligosaccharide part of the conjugates, and conjugate VIII were indirectly assigned by ex-vivo determination of plasma anti-Xa activity at specific time-intervals as described above. The half-lives of the reference GPIIb/IIIa antagonists XVII, XIX and XX (see Scheme 10) were determined by measuring the plasma concentration at specific time-intervals using LC-MS/MS.

In another series the test system is Bovine factor Xa. Kind of series: Determination of anti-factor Xa activity in buffer (microtiter plate method, AT-III mediated). The series is classed as biochemical. Conditions: Kabi buffer, human AT-III. The text has this:
II. Determination of Anti-Factor Xa Activity in Buffer
(Microtiter Plate Method)
Anticoagulants can inhibit Xa directly or, like heparin, by potentiating the inhibitory activity of AT-III. Anti-Xa activity can be assessed by determination of the rate of hydrolysis of the chromogenic substrate S-2222 in the presence of AT-III. This assay is used to determine anti-Xa activity of heparinoid preparations in Kabi buffer.
Test medium: Kabi buffer.
Ref. compound: International standard heparin (11.4 anti-Xa U/mg).
Composition of the buffer: NaCl 10.17 g (174 mmol); edetate disodium dihydrate 3.26 g (9.6 mmol); tromethamine (Tris) 6.11 g (50.4 mmol); made up to 1 L with ultrapure H2O *. The pH of the solution is adjusted to 7.4 with hydrochloric acid (0.10 mol/L)
Bovine factor Xa (Kabi Diagnostica, Stockholm, Sweden) is dissolved in Kabi buffer to give a solution containing 1.5 U/mL (0.75 nKat/mL). • 3. S-2222 solution
S-2222 (Kabi Diagnostica) is dissolved in ultrapure H2O to give a solution containing 0.375 mg/mL (0.5 mmol/L). • 4. AT-III solution
Human AT-III (Kabi Diagnostica) is dissolved in Kabi buffer to give a solution containing 0.25 U/mL. A fresh solution has to be prepared daily. • 5. Standard solution of the calibration sample
Standard heparin is dissolved in Kabi buffer to give a standard solution containing approx. 0.25 anti-Xa U/mL.
Each preparation is dissolved in ultrapure H2O and diluted with Kabi buffer to the required concentrations in the range of 0.02-0.2 anti-Xa U/mL
Each test sample (0.05 mL) is pipetted into a well of a microtiter plate at RT. AT-III solution (0.05 mL) is added to each sample and the plate is shaken using a Vari-shaker.
An aliquot of Xa solution (0.05 mL) is pipetted into each well 10 min following addition of AT-III solution and the plate is shaken again. Exactly 2 min following addition of Xa solution, 0.1 mL S-2222 solution is pipetted into each well and the plate is shaken again. For all additions a 12-channel pipette is used.
The remaining amount of Xa catalyses the hydrolysis of S-2222, the rate of which is measured photometrically following incubation periods of 2 and 22 min respectively at RT. The absorbance of each sample is measured at 405 nm using a Reader Microelisa, model 310C (Organon Teknika, Oss, The Netherlands) and the increase in absorbance (ΔOD) is calculated. Each test sample is determined in duplicate. With every 10 samples, a blank (0.05 mL Kabi buffer) is included.
From an aliquot of the standard solution of the calibration sample a range of dilutions is made (dilution factor 1,3 for heparin samples). The resulting standard samples (approx. 15 samples) should contain between 0.01-0.25 anti-Xa U/mL. […]
For each sample the mean anti-Xa activity in U/mL is determined using the calibration curve. […]

Where a name gives a salt, the structure may show the parent alone.

As to `CO[C@H]1O[C@H](COS(=O)(=O)O)[C@@H](O[C@@H]2O[C@@H](C(=O)O)[C@@H](O[C@H]3O[C@H](COS(=O)(=O)O)[C@@H](O[C@@H]4O[C@H](C(=O)O)[C@@H](O[C@H]5O[C@H](COS(=O)(=O)O)[C@@H](OCCOCCOCCOCCNC(=O)COCCOCCOCCOCCNC(=O)[C@H](CC(=O)O)NC(=O)[C@@H]6CCCN(C(=O)CCC7CCNCC7)C6)[C@H](OC)[C@H]5OC)[C@H](OC)[C@H]4OC)[C@H](OS(=O)(=O)O)[C@H]3OS(=O)(=O)O)[C@H](OC)[C@H]2OC)[C@H](OC)[C@H]1OS(=O)(=O)O` [Compound VIII, sodium salt], in series [1], the half life entry was “significantly prolonged”. For the same compound, the Anti-Xa activity in the series with Bovine factor Xa (substrate S-2222, calibrated against standard heparin) was found to be 605 ± 43 U/mg; in the series with Bovine factor Xa (substrate S-2222, per nmol (from U/mg and Mw)), 1.45 U/nmol.
